B1: m21; m1 Prp16p:R456K; Prp16p:G691R; Brr2 H2-Sec63-2:R1899G (protein)
chain: MGHSGREERIKDIFKELTSKELTPGLLLTLQKLAQKPNTNLEQFIASCKALTKLSSNNPIIFNELLELLKNKSEEDSTGPKKIAPSINKRKKFKIQLDLDDNEDELDSPVQKKPAPTRTLFKRIDKLKAKQLRQYSPTVKDPSPNSEQQTQNGHAETKDYEPTRSEVVEEDREWYDNDDDYGNLVPEPLSELPEEAKLLPVIRNIDNDDALRNTVQLYPIPLKQRMEWIPPFLSKFALENKVPTSIIIGSISETSSQVSALSMVNPFRNPDSEFSANAKRGSKLVALRRINMEHIQQSRDNTTVLNTAMGEVLGLENNNKAKDKSNQKICDDTALFTPSKDDIKHTKEQLPVFRCRSQLLSLIRENQVVVIIGETGSGKTTQLAQYLYEEGYANDRGKSIVVTQPRRVAAISVAKRVAMEMQVPLGKEVGYSIRFEDVTDSECTKLKFVTDGILLKETLLDDTLDKYSCVIIDEAHERSLNTDILLGFFKILLARRRDLKLIITSATMNAKKFSAFFGNAPQFTIPGRTFPVQTIYTSNPVQDYVEAAVSQAVKIHLANDCSSGDILIFMTGQEDIETTFDTLQEKFLQVYSKKFGTANFEEINDIEILPIYSALPADLQFKIFQDLHGTKRKIIIATNIAETSLTIKGIRYVIDCGYSKLKVYNPKIGLDSLVITPISKANADQRSGRARRTAPGTAYRLYTEDTFKEDMYLQTIPEIQRTNLSNTLLLLKSLDVTDELSKFPFIDKPPLQTFLSSLYELWFIGAIDTSGQLTPLGLQMAKFPLQPSLSKILLIAVRNGCSDEMLTIVSMLSVPQVFYRPKERQKEADIARNKFFIAKSDHLTLLNVFEQWRANNFSSHWCNKHFVQYKSLVRARDIRDQLLTILKSQKIPVISSGKDWDIIKKCICSGFAHQAAKITGLRNYVHLKTGVSVQLHPTSALHGLGDLPPYVVYHELLMTSKEYICCVTSVDPFWLMEYGGLLYDIKRIKNDQEATTTGLFGEHYEHTLDKVEDDIDINIRRCKDMRDSVIQELKMTDNSNKEDKKQKTKKQNILNGKENSMKPFKRRKPFF
B2: m21; m1 Prp16p:R686Q; Brr2 H2-Sec63-2:R1899G (protein)
chain: MGHSGREERIKDIFKELTSKELTPGLLLTLQKLAQKPNTNLEQFIASCKALTKLSSNNPIIFNELLELLKNKSEEDSTGPKKIAPSINKRKKFKIQLDLDDNEDELDSPVQKKPAPTRTLFKRIDKLKAKQLRQYSPTVKDPSPNSEQQTQNGHAETKDYEPTRSEVVEEDREWYDNDDDYGNLVPEPLSELPEEAKLLPVIRNIDNDDALRNTVQLYPIPLKQRMEWIPPFLSKFALENKVPTSIIIGSISETSSQVSALSMVNPFRNPDSEFSANAKRGSKLVALRRINMEHIQQSRDNTTVLNTAMGEVLGLENNNKAKDKSNQKICDDTALFTPSKDDIKHTKEQLPVFRCRSQLLSLIRENQVVVIIGETGSGKTTQLAQYLYEEGYANDRGKSIVVTQPRRVAAISVAKRVAMEMQVPLGKEVGYSIRFEDVTDSECTKLKFVTDGILLRETLLDDTLDKYSCVIIDEAHERSLNTDILLGFFKILLARRRDLKLIITSATMNAKKFSAFFGNAPQFTIPGRTFPVQTIYTSNPVQDYVEAAVSQAVKIHLANDCSSGDILIFMTGQEDIETTFDTLQEKFLQVYSKKFGTANFEEINDIEILPIYSALPADLQFKIFQDLHGTKRKIIIATNIAETSLTIKGIRYVIDCGYSKLKVYNPKIGLDSLVITPISKANADQQSGRAGRTAPGTAYRLYTEDTFKEDMYLQTIPEIQRTNLSNTLLLLKSLDVTDELSKFPFIDKPPLQTFLSSLYELWFIGAIDTSGQLTPLGLQMAKFPLQPSLSKILLIAVRNGCSDEMLTIVSMLSVPQVFYRPKERQKEADIARNKFFIAKSDHLTLLNVFEQWRANNFSSHWCNKHFVQYKSLVRARDIRDQLLTILKSQKIPVISSGKDWDIIKKCICSGFAHQAAKITGLRNYVHLKTGVSVQLHPTSALHGLGDLPPYVVYHELLMTSKEYICCVTSVDPFWLMEYGGLLYDIKRIKNDQEATTTGLFGEHYEHTLDKVEDDIDINIRRCKDMRDSVIQELKMTDNSNKEDKKQKTKKQNILNGKENSMKPFKRRKPFF
B3: m21; m1 Prp16p:Q685H; Brr2 H2-Sec63-2:R1899G (protein)
chain: MGHSGREERIKDIFKELTSKELTPGLLLTLQKLAQKPNTNLEQFIASCKALTKLSSNNPIIFNELLELLKNKSEEDSTGPKKIAPSINKRKKFKIQLDLDDNEDELDSPVQKKPAPTRTLFKRIDKLKAKQLRQYSPTVKDPSPNSEQQTQNGHAETKDYEPTRSEVVEEDREWYDNDDDYGNLVPEPLSELPEEAKLLPVIRNIDNDDALRNTVQLYPIPLKQRMEWIPPFLSKFALENKVPTSIIIGSISETSSQVSALSMVNPFRNPDSEFSANAKRGSKLVALRRINMEHIQQSRDNTTVLNTAMGEVLGLENNNKAKDKSNQKICDDTALFTPSKDDIKHTKEQLPVFRCRSQLLSLIRENQVVVIIGETGSGKTTQLAQYLYEEGYANDRGKSIVVTQPRRVAAISVAKRVAMEMQVPLGKEVGYSIRFEDVTDSECTKLKFVTDGILLRETLLDDTLDKYSCVIIDEAHERSLNTDILLGFFKILLARRRDLKLIITSATMNAKKFSAFFGNAPQFTIPGRTFPVQTIYTSNPVQDYVEAAVSQAVKIHLANDCSSGDILIFMTGQEDIETTFDTLQEKFLQVYSKKFGTANFEEINDIEILPIYSALPADLQFKIFQDLHGTKRKIIIATNIAETSLTIKGIRYVIDCGYSKLKVYNPKIGLDSLVITPISKANADHRSGRAGRTAPGTAYRLYTEDTFKEDMYLQTIPEIQRTNLSNTLLLLKSLDVTDELSKFPFIDKPPLQTFLSSLYELWFIGAIDTSGQLTPLGLQMAKFPLQPSLSKILLIAVRNGCSDEMLTIVSMLSVPQVFYRPKERQKEADIARNKFFIAKSDHLTLLNVFEQWRANNFSSHWCNKHFVQYKSLVRARDIRDQLLTILKSQKIPVISSGKDWDIIKKCICSGFAHQAAKITGLRNYVHLKTGVSVQLHPTSALHGLGDLPPYVVYHELLMTSKEYICCVTSVDPFWLMEYGGLLYDIKRIKNDQEATTTGLFGEHYEHTLDKVEDDIDINIRRCKDMRDSVIQELKMTDNSNKEDKKQKTKKQNILNGKENSMKPFKRRKPFF
B4: m21; m1 Prp16p:D473E; Brr2 H2-Sec63-2:R1899G (protein)
chain: MGHSGREERIKDIFKELTSKELTPGLLLTLQKLAQKPNTNLEQFIASCKALTKLSSNNPIIFNELLELLKNKSEEDSTGPKKIAPSINKRKKFKIQLDLDDNEDELDSPVQKKPAPTRTLFKRIDKLKAKQLRQYSPTVKDPSPNSEQQTQNGHAETKDYEPTRSEVVEEDREWYDNDDDYGNLVPEPLSELPEEAKLLPVIRNIDNDDALRNTVQLYPIPLKQRMEWIPPFLSKFALENKVPTSIIIGSISETSSQVSALSMVNPFRNPDSEFSANAKRGSKLVALRRINMEHIQQSRDNTTVLNTAMGEVLGLENNNKAKDKSNQKICDDTALFTPSKDDIKHTKEQLPVFRCRSQLLSLIRENQVVVIIGETGSGKTTQLAQYLYEEGYANDRGKSIVVTQPRRVAAISVAKRVAMEMQVPLGKEVGYSIRFEDVTDSECTKLKFVTDGILLRETLLDDTLDKYSCVIIEEAHERSLNTDILLGFFKILLARRRDLKLIITSATMNAKKFSAFFGNAPQFTIPGRTFPVQTIYTSNPVQDYVEAAVSQAVKIHLANDCSSGDILIFMTGQEDIETTFDTLQEKFLQVYSKKFGTANFEEINDIEILPIYSALPADLQFKIFQDLHGTKRKIIIATNIAETSLTIKGIRYVIDCGYSKLKVYNPKIGLDSLVITPISKANADQRSGRAGRTAPGTAYRLYTEDTFKEDMYLQTIPEIQRTNLSNTLLLLKSLDVTDELSKFPFIDKPPLQTFLSSLYELWFIGAIDTSGQLTPLGLQMAKFPLQPSLSKILLIAVRNGCSDEMLTIVSMLSVPQVFYRPKERQKEADIARNKFFIAKSDHLTLLNVFEQWRANNFSSHWCNKHFVQYKSLVRARDIRDQLLTILKSQKIPVISSGKDWDIIKKCICSGFAHQAAKITGLRNYVHLKTGVSVQLHPTSALHGLGDLPPYVVYHELLMTSKEYICCVTSVDPFWLMEYGGLLYDIKRIKNDQEATTTGLFGEHYEHTLDKVEDDIDINIRRCKDMRDSVIQELKMTDNSNKEDKKQKTKKQNILNGKENSMKPFKRRKPFF
B5: m21; m1 Prp16p:R686I; Brr2 H2-Sec63-2:R1899G (protein)
chain: MGHSGREERIKDIFKELTSKELTPGLLLTLQKLAQKPNTNLEQFIASCKALTKLSSNNPIIFNELLELLKNKSEEDSTGPKKIAPSINKRKKFKIQLDLDDNEDELDSPVQKKPAPTRTLFKRIDKLKAKQLRQYSPTVKDPSPNSEQQTQNGHAETKDYEPTRSEVVEEDREWYDNDDDYGNLVPEPLSELPEEAKLLPVIRNIDNDDALRNTVQLYPIPLKQRMEWIPPFLSKFALENKVPTSIIIGSISETSSQVSALSMVNPFRNPDSEFSANAKRGSKLVALRRINMEHIQQSRDNTTVLNTAMGEVLGLENNNKAKDKSNQKICDDTALFTPSKDDIKHTKEQLPVFRCRSQLLSLIRENQVVVIIGETGSGKTTQLAQYLYEEGYANDRGKSIVVTQPRRVAAISVAKRVAMEMQVPLGKEVGYSIRFEDVTDSECTKLKFVTDGILLRETLLDDTLDKYSCVIIDEAHERSLNTDILLGFFKILLARRRDLKLIITSATMNAKKFSAFFGNAPQFTIPGRTFPVQTIYTSNPVQDYVEAAVSQAVKIHLANDCSSGDILIFMTGQEDIETTFDTLQEKFLQVYSKKFGTANFEEINDIEILPIYSALPADLQFKIFQDLHGTKRKIIIATNIAETSLTIKGIRYVIDCGYSKLKVYNPKIGLDSLVITPISKANADQISGRAGRTAPGTAYRLYTEDTFKEDMYLQTIPEIQRTNLSNTLLLLKSLDVTDELSKFPFIDKPPLQTFLSSLYELWFIGAIDTSGQLTPLGLQMAKFPLQPSLSKILLIAVRNGCSDEMLTIVSMLSVPQVFYRPKERQKEADIARNKFFIAKSDHLTLLNVFEQWRANNFSSHWCNKHFVQYKSLVRARDIRDQLLTILKSQKIPVISSGKDWDIIKKCICSGFAHQAAKITGLRNYVHLKTGVSVQLHPTSALHGLGDLPPYVVYHELLMTSKEYICCVTSVDPFWLMEYGGLLYDIKRIKNDQEATTTGLFGEHYEHTLDKVEDDIDINIRRCKDMRDSVIQELKMTDNSNKEDKKQKTKKQNILNGKENSMKPFKRRKPFF

Brr2 H2-Sec63-2p R1899G, Gal4AD-prey fusion, P32639, sequence (P32639 whole entry R1899G, the tested form may be a part): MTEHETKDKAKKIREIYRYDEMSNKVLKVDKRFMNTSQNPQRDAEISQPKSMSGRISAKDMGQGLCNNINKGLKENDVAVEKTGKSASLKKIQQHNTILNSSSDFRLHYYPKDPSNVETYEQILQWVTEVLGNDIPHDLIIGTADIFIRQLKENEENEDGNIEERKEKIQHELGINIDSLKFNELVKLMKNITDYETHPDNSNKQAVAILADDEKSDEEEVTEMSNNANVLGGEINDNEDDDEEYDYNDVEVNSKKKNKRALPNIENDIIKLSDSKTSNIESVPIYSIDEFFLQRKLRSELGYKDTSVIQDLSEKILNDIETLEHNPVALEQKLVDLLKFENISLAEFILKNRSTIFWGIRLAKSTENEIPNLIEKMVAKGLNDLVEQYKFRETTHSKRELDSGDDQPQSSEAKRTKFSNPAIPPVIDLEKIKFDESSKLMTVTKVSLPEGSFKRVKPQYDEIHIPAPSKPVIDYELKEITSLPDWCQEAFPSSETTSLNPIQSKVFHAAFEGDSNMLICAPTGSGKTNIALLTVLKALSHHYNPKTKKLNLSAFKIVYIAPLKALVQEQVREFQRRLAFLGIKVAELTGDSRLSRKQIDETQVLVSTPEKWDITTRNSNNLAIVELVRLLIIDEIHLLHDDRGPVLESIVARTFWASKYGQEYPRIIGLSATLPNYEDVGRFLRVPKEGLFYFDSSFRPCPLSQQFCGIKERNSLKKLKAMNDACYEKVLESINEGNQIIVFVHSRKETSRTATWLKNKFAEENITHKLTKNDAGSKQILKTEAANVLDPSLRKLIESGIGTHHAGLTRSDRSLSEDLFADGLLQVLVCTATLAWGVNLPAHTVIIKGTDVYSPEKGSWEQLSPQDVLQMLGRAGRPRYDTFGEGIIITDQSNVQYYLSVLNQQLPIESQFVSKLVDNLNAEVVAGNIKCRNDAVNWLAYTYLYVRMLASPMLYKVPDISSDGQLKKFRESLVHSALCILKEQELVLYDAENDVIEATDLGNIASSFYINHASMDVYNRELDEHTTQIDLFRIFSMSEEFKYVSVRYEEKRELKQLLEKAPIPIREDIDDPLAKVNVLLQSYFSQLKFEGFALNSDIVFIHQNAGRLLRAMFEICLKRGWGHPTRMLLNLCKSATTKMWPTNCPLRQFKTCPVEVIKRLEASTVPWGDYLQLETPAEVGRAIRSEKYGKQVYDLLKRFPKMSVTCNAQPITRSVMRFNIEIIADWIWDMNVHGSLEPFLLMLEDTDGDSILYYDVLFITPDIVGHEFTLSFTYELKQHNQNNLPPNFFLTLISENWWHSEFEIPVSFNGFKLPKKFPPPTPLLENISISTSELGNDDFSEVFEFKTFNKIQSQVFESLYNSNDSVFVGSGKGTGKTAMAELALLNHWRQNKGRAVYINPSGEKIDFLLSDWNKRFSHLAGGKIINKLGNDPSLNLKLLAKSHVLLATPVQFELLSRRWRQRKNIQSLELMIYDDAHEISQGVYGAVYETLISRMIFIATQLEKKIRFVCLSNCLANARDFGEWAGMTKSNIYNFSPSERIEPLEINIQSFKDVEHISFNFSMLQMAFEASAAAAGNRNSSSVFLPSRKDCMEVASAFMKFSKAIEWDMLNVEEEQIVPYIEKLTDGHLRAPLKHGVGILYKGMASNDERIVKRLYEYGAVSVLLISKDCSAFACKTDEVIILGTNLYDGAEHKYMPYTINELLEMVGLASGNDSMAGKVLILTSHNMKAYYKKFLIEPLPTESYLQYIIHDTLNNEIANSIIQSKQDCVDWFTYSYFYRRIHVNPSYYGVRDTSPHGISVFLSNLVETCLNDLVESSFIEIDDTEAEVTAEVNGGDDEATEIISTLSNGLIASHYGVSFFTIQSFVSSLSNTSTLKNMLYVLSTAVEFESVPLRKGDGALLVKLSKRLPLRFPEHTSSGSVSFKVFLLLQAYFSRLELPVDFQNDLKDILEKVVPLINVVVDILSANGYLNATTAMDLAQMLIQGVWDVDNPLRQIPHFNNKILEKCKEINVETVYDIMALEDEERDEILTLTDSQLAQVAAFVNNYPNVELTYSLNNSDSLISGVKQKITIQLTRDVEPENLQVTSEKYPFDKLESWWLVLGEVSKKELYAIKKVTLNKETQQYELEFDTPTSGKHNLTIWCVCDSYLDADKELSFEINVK

This assay concerns the target Brr2 H2-Sec63-2p R1899G, Gal4AD-prey fusion, P32639. The experiment in a line: Y2H interaction assay. Conditions: chain shown with the change; growth on -LWH medium with 3-AT; parent: 50.0.
As for B1, the other: maximal [3AT] tolerated came to 0 mM.
B2: the other: maximal [3AT] tolerated came out at 50 mM.
In the case of B3 it was 100 mM; in that of B4, 10 mM; in that of B5, 75 mM.

The values above are taken from article PMC4267655, “Brr2p carboxy-terminal Sec63 domain modulates Prp16 splicing RNA helicase” (Nucleic Acids Research, 2014).
